How the values were obtained:
[1] = biological target: IFN-αR2 (IFNAR2), type I interferon receptor subunit on cells (human) (UniProt P48551)
[2] = biological target: IFN-αR1 (IFNAR1), type I interferon receptor subunit on cells (human) (UniProt P17181)

Histidine (His)-tagged IFN-ε (IFN-ε^His), recombinant, expressed in E. coli (ligand)
growth inhibition of Daudi cells, IC50 [1]: 100 µM
growth inhibition of Daudi cells, IC50 [2]: 100 µM

— US6299877
